In article PMC12630831 (Nature Communications, 2025):
Positions count from the first letter of the chain named. Names and notes keep the numbering of the source.

Target: the molecule itself
Assay: SDS-PAGE under DTT-free conditions with western blot

B1: FLAG-tagged PRDX1 C83A expressed in HEK293 cells (natural protein, UniProt Q06830 1-199, looked up)
chain: MSSGNAKIGHPAPNFKATAVMPDGQFKDISLSDYKGKYVVFFFYPLDFTFVCPTEIIAFSDRAEEFKKLNCQVIGASVDSHFAHLAWVNTPKKQGGLGPMNIPLVSDPKRTIAQDYGVLKADEGISFRGLFIIDDKGILRQITVNDLPVGRSVDETLRLVQAFQFTDKHGEVCPAGWKPGSDTIKPDVQKSKEYFSKQK
stoichiometry N: 2

B2: FLAG-tagged WT PRDX1 expressed in HEK293 cells (natural protein, UniProt Q06830 1-199, looked up)
chain: B1 chain with A83C
stoichiometry N: 2
